Drawing on paper PMC3173486, this text covers HI assay: minimal inhibitory concentration of RpSP-D multimers and HI assay: minimal inhibitory concentration of RpSP-D trimers for 2 molecules.

The assay deals with HA of all the influenza A/H3N2 viruses tested with RpSP-D multimers and trimers.

B1: RpSP-D multimers (natural protein)
chain: AEMKTYSQRAVANACALVMCSPMENGLPGRDGRDGREGPRGEKGDPGLPGAVGRAGMPGLAGPVGPKGDNGSTGEPGAKGDIGPCGPPGPPGIPGPAGKEGPSGQQGNIGPPGTPGPKGETGPKGEVGALGMQGSTGARGPAGLKGERGAPGERGAPGSAGAAGPAGATGPQGPSGARGPPGLKGDRGPPGERGAKGESGLPGITALRQQVETLQGQVQRLQKAFSQYKKVELFPNGRGVGEKIFKTGGFEKTFQDAQQVCTQAGGQMASPRSETENEALSQLVTAQNKAAFLSMTDIKTEGNFTYPTGEPLVYANWAPGEPNNNGGSSGAENCVEIFPNGKWNDKACGELRLVICEF
On to B1, for which the HI assay: minimal inhibitory concentration of RpSP-D multimers was determined as 8.7 ng/100 µl.

B2: RpSP-D trimers (natural protein)
chain: B1 chain
In the case of B2, the HI assay: minimal inhibitory concentration of RpSP-D trimers is 124 ng/100 µl.
